Literature values, collected in paper PMC6160412.
Like-named read-outs stand apart in the source and are kept apart here.

Molecular target: Neurexin-1β (+S4) (Mus musculus) (UniProt P0DI97)
Experiment: SPR

Sequence of Neurexin-1β (+S4) (Mus musculus) (P0DI97 47-392): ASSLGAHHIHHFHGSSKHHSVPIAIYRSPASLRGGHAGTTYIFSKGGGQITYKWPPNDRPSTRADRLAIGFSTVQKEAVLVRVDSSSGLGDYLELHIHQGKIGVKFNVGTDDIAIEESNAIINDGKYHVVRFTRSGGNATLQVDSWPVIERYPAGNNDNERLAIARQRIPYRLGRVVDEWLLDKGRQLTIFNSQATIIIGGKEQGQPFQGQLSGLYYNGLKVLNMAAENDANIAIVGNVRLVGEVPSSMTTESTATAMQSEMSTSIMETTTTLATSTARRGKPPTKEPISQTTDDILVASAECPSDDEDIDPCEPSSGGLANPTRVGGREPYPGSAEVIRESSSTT
Sequence of Neuroligin-1 (Q99K10 46-843): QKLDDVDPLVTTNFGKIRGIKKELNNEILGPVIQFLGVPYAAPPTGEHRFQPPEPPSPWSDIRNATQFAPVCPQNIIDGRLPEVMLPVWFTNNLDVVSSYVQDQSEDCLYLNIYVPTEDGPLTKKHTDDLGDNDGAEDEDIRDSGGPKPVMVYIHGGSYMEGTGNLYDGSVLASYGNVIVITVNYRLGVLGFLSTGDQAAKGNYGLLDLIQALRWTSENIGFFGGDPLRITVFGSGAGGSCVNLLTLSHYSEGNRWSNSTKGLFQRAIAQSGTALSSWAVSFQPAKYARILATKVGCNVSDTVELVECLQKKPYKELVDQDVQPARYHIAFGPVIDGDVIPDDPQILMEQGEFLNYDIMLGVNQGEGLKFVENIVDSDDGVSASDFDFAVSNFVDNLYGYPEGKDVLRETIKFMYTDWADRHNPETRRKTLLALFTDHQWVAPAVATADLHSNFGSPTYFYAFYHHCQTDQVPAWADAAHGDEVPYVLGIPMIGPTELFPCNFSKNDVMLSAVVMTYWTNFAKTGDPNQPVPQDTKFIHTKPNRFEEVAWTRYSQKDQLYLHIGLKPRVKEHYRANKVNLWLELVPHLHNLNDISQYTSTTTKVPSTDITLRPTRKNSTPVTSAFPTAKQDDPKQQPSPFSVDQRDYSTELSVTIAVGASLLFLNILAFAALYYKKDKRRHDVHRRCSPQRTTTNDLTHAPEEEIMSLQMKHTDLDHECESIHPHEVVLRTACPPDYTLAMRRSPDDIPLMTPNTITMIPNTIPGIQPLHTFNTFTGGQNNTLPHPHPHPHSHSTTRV

Row | Kd | Kd (record 2) | Substance
1 | 0.7 µM | 2.6 µM | Neuroligin-1 (from UniProt Q99K10)
2 | 2.5 µM | 9.7 µM | Neuroligin-4 (from UniProt Q8N0W4)
